From publication PMC11165011, “Proteinase 3 depletion attenuates leukemia by promoting myeloid differentiation” (Cell Death and Differentiation, 2024)

B1: PRTN3 recombinant protein (enzyme, human, UniProt P24158 28-248, looked up)
chain: IVGGHEAQPHSRPYMASLQMRGNPGSHFCGGTLIHPSFVLTAAHCLRDIPQRLVNVVLGAHNVRTQEPTQQHFSVAQVFLNNYDAENKLNDVLLIQLSSPANLSASVATVQLPQQDQPVPHGTQCLAMGWGRVGAHDPPAQVLQELNVTVVTFFCRPHNICTFVPRRKAGICFGDSGGPLICDGIIQGIDSFVIWGCATRLFPDFFTRVALYVDWIRSTLR
notes: Proteinase 3 (PRTN3), human, bought recombinant protein; see the vendor's sheet for HY-P70509; also called hPRTN3; hPR3; source: bought: ACE (HY-P70509)

Assays:
[1] = target: T1, STAT3 recombinant protein (whole STAT3) (human, UniProt P40763 1-770); assay: SPR; Biacore K8, CM5 chip; 'target proteins' at 20 μg/mL in PBS pH 7.2 immobilised by amine coupling at 25 °C (which partner is not stated); 300 s dissociation; steady-state analysis; conditions: both partners purified
T1 construct: STAT3, human, bought recombinant protein with the N-terminal domain; In the cleavage test STAT3 ran as a ~120 kDa monomer, which may mean a carrier tag (surmise); also called recombinant human STAT3; source: bought: one of Abcam (Ab43618), ACRO (ST3-H5149), ACE (HY-P70574)

[2] = target: B1; assay: as above; conditions: both partners purified

Binder	Kd [1] [µM]	Kd [2] [µM]
B1	0.224	–
N-terminal domain of STAT3, recombinant (domain or fragment, Limits of the purchased recombinant N-terminal domain are not given; 1-130 is taken from the paper's own shortest Flag-STAT3 truncation (1-130), which matches the usual N-terminal domain boundary. …) MAQWNQLQQLDTRYLEQLHQLYSDSFPMELRQFLAPWIESQDWAYAASKESHATLVFHNLLGEIDQQYSRFLQESNVLYQHNLRRIKQFLQSRYLEKPMEIARIVARCLWEESRLLQTAATAAQQGGQAN	–	6.91
